According to article PMC4938498, “Molecular, Biochemical, and Dietary Regulation Features of α-Amylase in a Carnivorous Crustacean, the Spiny Lobster Panulirus argus” (PLoS ONE, 2016):

Substrate: O=[N+]([O-])c1ccc(O[C@H]2O[C@H](CO)[C@@H](O[C@H]3O[C@H](CO)[C@@H](O[C@H]4O[C@H](CO)[C@@H](O)[C@H](O)[C@H]4O)[C@H](O)[C@H]3O)[C@H](O)[C@H]2O)c(Cl)c1
Assay: purified protein
Format: biochemical, Panulirus argus
Conditions: 50 mM MES pH 5.5, 0.3 M NaCl, 25 mM CaCl2, 37°C

B1: lobster α-amylase (PaAmy) (Panulirus argus) (protein)
chain: QWDPHVTNGQAIVHLFEWRWSDIASECENFLGPRGYGGVQVSPPNENVVVYQDEKSRPWWERYQPVSYKIATRSGDEASFKDMVNRCNNAGVRIYVDAVINHMSGWWPTGTAATGGSTFDAGAESYPAVPYSAFDFNDANCHTASGTIEDYGDAEQVRNCKLVGLNDLNQGTDYVRGKIRDYLNTLTSWGVAGFRVDATKHMWPGDLKAIFDSLDDLSPHYFDAGSRPFIFQEVIDLGGEPITSSQYVGNGRVTEFKYGKSLGESFNGNNPLKWFSTFGESWGMVDRGNAVVFIDNHDNQRTGGDMILTFRSSKWYKMANAYMLAWPYGFPRVMSSFYWDQWWENGHDKNDWTGPPHDGSYNIVGPTFNPDDSCGNGWICEHRWRQIYNMVQFRNVAHGTDMNDWWDNGSNQISFCRGDRGFIAINNDPWDMKESRQTCLSSGTYCDVISGSKIQGSCTGKTVTVNADGFAYIEILNSEEDGVLAIHRDSKL
notes: native, purified from digestive gland pool; mature enzyme after 21-residue signal peptide (cleavage A21/Q22 predicted); precursor 513 residues; N-glycosylation N429 predicted
- Km: 360 ± 52 µM
- kcat: 28.42 ± 1.203 s⁻¹
